In experiment [1] the target is T1, cynomolgus monkey OX40 expressed on HEK293F cells (cynomolgus monkey (Macaca fascicularis), UniProt P43489 29-277 (human entry)).
T1 construct: full-length entry
T1 chain: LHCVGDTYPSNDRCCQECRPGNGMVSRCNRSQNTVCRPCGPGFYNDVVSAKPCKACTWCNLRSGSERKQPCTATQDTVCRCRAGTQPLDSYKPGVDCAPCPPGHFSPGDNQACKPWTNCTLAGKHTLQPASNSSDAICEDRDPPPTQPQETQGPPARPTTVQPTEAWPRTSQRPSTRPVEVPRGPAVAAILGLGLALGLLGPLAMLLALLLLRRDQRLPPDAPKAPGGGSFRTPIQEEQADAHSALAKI
The experiment can be described thus: flow cytometry, OX40-transfected HEK293F cells, gMFI (PE). As for the experimental part: (§1) Transfected cells were seeded in 96-well plates (30,000 cells/well; ThermoFisher, cat. no. 163320) for sequential incubations, with washing steps in between using fluorescence-activated cell sorting (FACS) buffer 1 (phosphate buffered saline [PBS; Lonza, cat. no. BE17-517Q] supplemented with 0.1% bovine serum albumin [BSA; Roche, cat. no. 10735086001] and 0.02% sodium azide [NaN₃; Bio-World, cat. no. 41920044-3]) supplemented with 2 mM ethylenediaminetetraacetic acid (EDTA; Sigma-Aldrich, cat. no. 03690). […] Cells were then washed using EDTA-supplemented FACS buffer 1, resuspended in a 30 μL solution of viability marker ToPro-3 (Invitrogen, cat. no. T3605, diluted 1:10,000) in EDTA-supplemented FACS buffer 1, and subsequently analyzed on an iQue® 3 flow cytometer (Satorius). Data were analyzed using FlowJo software and were visualized using GraphPad Prism.

Experiment [2] addresses T2, human OX40 expressed on cells (human, UniProt P43489 29-277).
T2 construct: also called CD134; TNFRSF4
T2 sequence: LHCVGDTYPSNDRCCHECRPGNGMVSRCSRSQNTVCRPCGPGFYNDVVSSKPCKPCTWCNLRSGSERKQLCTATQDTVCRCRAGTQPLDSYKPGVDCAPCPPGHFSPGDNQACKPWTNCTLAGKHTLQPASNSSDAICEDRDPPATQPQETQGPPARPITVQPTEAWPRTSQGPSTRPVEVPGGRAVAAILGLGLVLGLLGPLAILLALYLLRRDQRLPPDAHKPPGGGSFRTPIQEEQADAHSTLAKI
Described as above. As for the experimental part: as §1

Experiment [3] addresses T3, human OX40 with mouse CRD3 (human with mouse CRD3, UniProt P43489 29-277).
T3 construct: on ExpiCHO-S cells; also called OX40-CRD3mm; Shuffle 3
T3 chain: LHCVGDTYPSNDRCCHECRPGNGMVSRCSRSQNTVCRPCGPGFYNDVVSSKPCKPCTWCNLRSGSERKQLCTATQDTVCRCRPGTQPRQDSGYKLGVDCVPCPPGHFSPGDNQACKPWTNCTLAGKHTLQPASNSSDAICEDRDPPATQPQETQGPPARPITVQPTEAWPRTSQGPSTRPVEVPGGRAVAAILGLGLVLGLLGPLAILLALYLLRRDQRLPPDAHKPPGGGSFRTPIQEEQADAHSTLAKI
Briefly: flow cytometry, transfected ExpiCHO-S cells, gMFI (PE).

Experiment [4] addresses T4, human OX40 with mouse CRD2 (human with mouse CRD2, UniProt P43489 29-277).
T4 construct: on ExpiCHO-S cells; also called OX40-CRD2mm; Shuffle 2
T4 chain: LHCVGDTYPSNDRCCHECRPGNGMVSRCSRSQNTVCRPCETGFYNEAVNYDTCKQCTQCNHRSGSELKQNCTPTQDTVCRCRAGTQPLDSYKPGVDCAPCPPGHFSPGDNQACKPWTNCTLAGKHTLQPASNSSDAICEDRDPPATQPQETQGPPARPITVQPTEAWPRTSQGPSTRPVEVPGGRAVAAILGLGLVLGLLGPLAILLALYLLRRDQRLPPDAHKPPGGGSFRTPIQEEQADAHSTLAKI
Described as above.

Experiment [5] concerns the target T5, human OX40 with mouse CRD1 (human with mouse CRD1, UniProt P43489 29-277).
T5 construct: on ExpiCHO-S cells; also called OX40-CRD1mm; Shuffle 1
T5 chain: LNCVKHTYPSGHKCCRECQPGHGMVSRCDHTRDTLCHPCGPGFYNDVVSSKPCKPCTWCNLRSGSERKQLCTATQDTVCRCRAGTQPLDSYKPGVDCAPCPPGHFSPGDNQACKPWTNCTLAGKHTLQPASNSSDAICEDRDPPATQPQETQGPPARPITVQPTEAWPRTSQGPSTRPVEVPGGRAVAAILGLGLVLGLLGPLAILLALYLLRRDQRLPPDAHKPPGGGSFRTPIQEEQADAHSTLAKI
The experiment is described as above.

Experiment [6] has as its target T6, human FcγRIa expressed on cells (human, UniProt P12314 16-374).
T6 construct: whole, on cells; also called FcγR1a; CD64
Briefly: flow cytometry, FcγRIa-expressing human monocyte-derived M2c-like macrophages, 15 min.

The target in experiment [7] is T7, mouse OX40 expressed on ExpiCHO-S cells (mouse, UniProt P47741 20-272).
T7 construct: full-length entry; also called OX40mm; wild-type mouse OX40
T7 sequence: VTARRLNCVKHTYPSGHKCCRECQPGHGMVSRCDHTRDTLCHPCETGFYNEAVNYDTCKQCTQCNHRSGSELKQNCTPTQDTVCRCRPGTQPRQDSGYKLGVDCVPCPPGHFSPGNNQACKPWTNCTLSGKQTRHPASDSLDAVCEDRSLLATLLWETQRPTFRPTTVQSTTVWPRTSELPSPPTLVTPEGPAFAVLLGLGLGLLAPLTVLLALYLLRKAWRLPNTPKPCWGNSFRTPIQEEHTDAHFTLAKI
The experiment can be described thus: flow cytometry, transfected ExpiCHO-S cells, gMFI (PE).

Experiment [8] deals with T8, human OX40 with mouse CRD4 (human with mouse CRD4, UniProt P43489 29-277).
T8 construct: on ExpiCHO-S cells; also called OX40-CRD4mm; Shuffle 4
T8 chain: T2 sequence with D109N, A122S, H125Q, L127R, Q128H, N132D, S134L, I137V
The experiment is described as above. The protocol:
The four shuffle constructs, as well as wild-type human and mouse OX40 were transiently expressed on ExpiCHO-S cells using the ExpiFectamine™ CHO Transfection Kit (ThermoFisher, cat. no. A29131), according to the manufacturer's protocol. […] Next, cells were washed twice in FACS buffer 1, were resuspended in a 30 μL solution of viability marker ToPro-3 (Invitrogen, cat. no. T3605, diluted 1:10,000) in FACS buffer 1 supplemented with 2 mM EDTA, and were analyzed on an iQue Screener Plus (Intellicyt Corporation, USA). Data were analyzed using FlowJo software and visualized using GraphPad Prism.

Experiment [9] concerns the target T2, human OX40 expressed on cells. The experiment can be described thus: flow cytometry, human T cells activated 2 days with anti-CD3/CD28 beads, 2 µg/mL sOX40L, anti-mouse Fc detection. As for the experimental part:
Stimulated PBMCs were pelleted, resuspended in FACS buffer 2 (DPBS with 2% heat-inactivated FBS [Sigma-Aldrich, cat. no. F7524] and 2 mM EDTA [Sigma-Aldrich, cat. no. 03690]), and seeded (100,000 cells/well) in round-bottom 96-well plates (VWR International GmbH, cat. no. 734-197). […] Next, cells were washed twice in FACS buffer, and incubated with 30 μL of the antibody panel described in Table 11 diluted in FACS buffer 2 containing 1:1,500 Fixable Viability Stain eFluor 780 at 4° C. for 20 min, protected from light. The cells were subsequently washed twice with 120-150 μL FACS buffer 2 and measured on a BD FACSCelesta flow cytometer using a BD High Throughput sampler and subsequent analysis was done using FlowJo software.

Experiment [10] deals with T9, His-tagged human recombinant FcγRIIIa 176-Val (Sino Biological, cat. no. 10389-H27H1-B) (human, UniProt P08637 17-208).
T9 construct: also called FcγRIIIa[V]
Briefly: SPR, His-tagged FcγR captured on anti-His chip, antibody injected. As for the experimental part: (§2) Biacore Series S Sensor Chips CM5 (Cytiva, cat. no. 29104988) were covalently coated with anti-His antibody using amine-coupling and His capture kits (Cytiva, cat. no. BR100050 and cat. no. 29234602) according to the manufacturer's instructions. […] After three start-up cycles of HBS-EP+ buffer, antibody samples were injected for 12 cycles per sample to generate binding curves using antibody concentration ranges of 0 to 3,000 nM for FcγRIa and 0 to 10,000 nM for the other FcγRs.
(§3) Dissociation from the anti-His-coated surface was performed by regeneration of the surface using 10 mM Glycine-HCl pH 1.5 (Cytiva, cat. no. BR100354).

The target in experiment [11] is T10, His-tagged human recombinant FcγRIIa 167-His (Sino Biological, cat. no. 10374-H08H1) (human, UniProt P12318 34-218).
T10 construct: also called FcγRIIa[H]
T10 sequence (looked up): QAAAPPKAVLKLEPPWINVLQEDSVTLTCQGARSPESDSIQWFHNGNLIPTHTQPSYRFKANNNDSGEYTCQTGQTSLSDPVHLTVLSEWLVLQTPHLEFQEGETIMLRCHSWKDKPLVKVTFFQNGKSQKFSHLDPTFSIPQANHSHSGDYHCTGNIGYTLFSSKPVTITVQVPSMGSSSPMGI
Described as above. As for the experimental part:
as §2, §3

The target of experiment [12] is T11, His-tagged human recombinant FcγRIIb (Sino Biological, cat. no. 10259-H27H-B) (human, UniProt P31994 43-217).
T11 construct: also called FcγRII2b [sic]
T11 sequence (looked up): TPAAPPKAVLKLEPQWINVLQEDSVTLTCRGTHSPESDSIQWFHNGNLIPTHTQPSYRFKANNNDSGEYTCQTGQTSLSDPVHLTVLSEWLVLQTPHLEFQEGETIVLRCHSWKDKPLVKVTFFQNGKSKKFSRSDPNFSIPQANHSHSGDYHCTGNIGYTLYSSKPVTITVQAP
The description is as above. The protocol: as §2, §3

In experiment [13] the target is T12, His-tagged human recombinant FcγRIIa 167-Arg (Sino Biological, cat. no. 10374-H27H) (human, UniProt P12318 34-218).
T12 construct: also called FcγRIIa[R]
T12 sequence (looked up): T10 sequence (looked up) with H134R
The experiment is described as above. As for the experimental part:
as §2, §3

For experiment [14], the target named is T13, His-tagged human recombinant FcγRIIIa 176-Phe (Sino Biological, cat. no. 10389-H27H) (human, UniProt P08637 17-208).
T13 construct: also called FcγRIIIa[F]
Described as above. The protocol: as §2, §3

Experiment [15] has as its target His-tagged human recombinant FcγRIa (Sino Biological, cat. no. 10256-H08S-B) (human, UniProt P12314 16-288). Described as above. As for the experimental part: as §2, §3

Where a chain is given by its changes, count along the chain named. Numbers in names are those of the source.

T9 sequence (P08637 17-208 F176V limits assumed): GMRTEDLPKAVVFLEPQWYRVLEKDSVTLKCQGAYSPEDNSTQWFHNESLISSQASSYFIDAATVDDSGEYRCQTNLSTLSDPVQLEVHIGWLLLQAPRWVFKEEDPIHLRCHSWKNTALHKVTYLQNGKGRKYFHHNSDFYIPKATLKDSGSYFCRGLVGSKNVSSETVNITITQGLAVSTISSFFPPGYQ
T6 sequence (P12314 16-374): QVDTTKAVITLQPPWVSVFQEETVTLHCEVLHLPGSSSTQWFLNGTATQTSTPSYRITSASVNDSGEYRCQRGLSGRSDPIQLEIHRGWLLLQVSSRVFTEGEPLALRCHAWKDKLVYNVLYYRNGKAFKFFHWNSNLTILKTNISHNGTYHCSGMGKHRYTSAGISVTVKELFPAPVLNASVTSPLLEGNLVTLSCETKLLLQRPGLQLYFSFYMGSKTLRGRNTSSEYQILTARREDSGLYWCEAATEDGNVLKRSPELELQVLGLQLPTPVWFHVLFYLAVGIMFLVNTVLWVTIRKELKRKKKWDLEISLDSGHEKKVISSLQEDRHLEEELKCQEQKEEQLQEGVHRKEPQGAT
Chain of His-tagged human recombinant FcγRIa (Sino Biological, cat. no. 10256-H08S-B) (P12314 16-288 limits assumed, stated change not applied): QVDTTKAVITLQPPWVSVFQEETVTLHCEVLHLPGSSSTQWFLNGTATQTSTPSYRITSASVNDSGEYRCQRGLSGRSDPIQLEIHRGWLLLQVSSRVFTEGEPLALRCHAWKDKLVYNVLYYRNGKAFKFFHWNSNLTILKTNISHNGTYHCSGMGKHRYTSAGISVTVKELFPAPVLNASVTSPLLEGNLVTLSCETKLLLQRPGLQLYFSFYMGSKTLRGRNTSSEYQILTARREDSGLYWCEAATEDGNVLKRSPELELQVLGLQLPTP
T13 sequence (P08637 17-208 limits assumed): as the sequence (P08637 17-208 F176V limits assumed) above, with V160F counted along it

B1: IgG1-b12-RR (antibody)
heavy: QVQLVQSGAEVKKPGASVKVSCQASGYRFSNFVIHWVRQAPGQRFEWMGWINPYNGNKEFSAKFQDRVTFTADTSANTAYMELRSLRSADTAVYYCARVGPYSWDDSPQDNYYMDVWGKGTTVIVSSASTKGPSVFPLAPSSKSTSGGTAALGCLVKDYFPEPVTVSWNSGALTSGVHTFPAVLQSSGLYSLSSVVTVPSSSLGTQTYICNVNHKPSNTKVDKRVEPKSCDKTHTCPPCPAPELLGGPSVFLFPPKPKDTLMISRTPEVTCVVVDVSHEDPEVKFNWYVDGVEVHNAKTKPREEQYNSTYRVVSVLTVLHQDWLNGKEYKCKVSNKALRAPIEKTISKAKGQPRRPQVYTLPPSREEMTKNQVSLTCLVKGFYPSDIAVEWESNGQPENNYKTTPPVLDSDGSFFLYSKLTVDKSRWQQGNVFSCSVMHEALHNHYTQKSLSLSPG
VL: EIVLTQSPGTLSLSPGERATFSCRSSHSIRSRRVAWYQHKPGQAPRLVIHGVSNRASGISDRFSGSGSGTDFTLTITRVEPEDFALYYCQVYGASSYTFGQGTKLERK
notes: also called IgG1-b12-P329R-E345R
For the molecule B1, the binding result in experiment [1] is listed as “no binding (tested: 50 µg/mL)”; in experiment [2], “no binding (tested: 50 µg/mL)”; in experiment [3], “no binding (tested: 50 µg/mL)”; in experiment [4] it was “no binding (tested: 50 µg/mL)”; in [5], “no binding (tested: 50 µg/mL)”; in experiment [6], “no binding (tested: 10 µg/mL)”. Besides, the binding result in experiment [7] and in experiment [8] was “no binding (tested: 50 µg/mL)” throughout.

B2: murine Fc-tagged human sOX40L (Sino Biological, cat. no. 13127-H04H) (Fc fusion, UniProt P23510 51-183, looked up)
chain: QVSHRYPRIQSIKVQFTEYKKEKGFILTSQKEDEIMKVQNNSVIINCDGFYLISLKGYFSQEVNISLHYQKDEEPLFQLKKVRSVNSLMVASLTYKDKVYLNVTTDNTSLDDFHVNGGELILIHQNPGEFCVL
notes: bought protein; also called soluble OX40L; not shown: murine Fc tag
On to B2, for which the binding result in experiment [9] was “binds”.

B3: IgG1-CD134-003-HC6LC2-E345R (antibody)
heavy: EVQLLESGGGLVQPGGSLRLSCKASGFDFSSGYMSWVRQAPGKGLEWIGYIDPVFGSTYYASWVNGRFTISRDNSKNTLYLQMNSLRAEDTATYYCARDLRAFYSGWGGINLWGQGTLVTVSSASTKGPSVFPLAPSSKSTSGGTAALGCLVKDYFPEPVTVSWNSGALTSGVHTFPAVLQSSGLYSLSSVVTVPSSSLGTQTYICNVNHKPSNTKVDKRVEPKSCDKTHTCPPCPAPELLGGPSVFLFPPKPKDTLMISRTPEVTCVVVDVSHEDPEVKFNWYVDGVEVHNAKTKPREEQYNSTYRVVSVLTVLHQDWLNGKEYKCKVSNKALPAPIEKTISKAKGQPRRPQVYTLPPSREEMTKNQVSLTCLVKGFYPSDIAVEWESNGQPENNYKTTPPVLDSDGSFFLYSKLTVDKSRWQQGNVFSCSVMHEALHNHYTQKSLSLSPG
light: AAVLTQSPSSLSASVGDRVTITCQSSQIVVNNNFLSWYQQKPGKAPKLLIYDASNLASGVPDRFSGSGSGTDFTFTISSLQPEDIATYYCLGGYDDDAENAFGGGTKVEIKRTVAAPSVFIFPPSDEQLKSGTASVVCLLNNFYPREAKVQWKVDNALQSGNSQESVTEQDSKDSTYSLSSTLTLSKADYEKHKVYACEVTHQGLSSPVTKSFNRGEC
notes: also called variant of IgG1-CD134-003-HC6LC2-RR without Fc-inertness mutation; copies: 2 + 2
As for B3, the binding result in [10], in experiment [11], in [12], in [13], in experiment [14] and in experiment [15] was “binds” each time.
